# Measured values taken from patent US8444970B2, “Compositions and methods for treating ocular diseases and conditions” (Lpath, Inc., priority 2006, dated 2013).
# B1: LT1002: murine anti-S1P monoclonal antibody, IgG1 kappa, hybridoma clone 306D326.26 (antibody, listed as Mus sp., V domains shown)
# VH: QAHLQQSDAELVKPGASVKISCKVSGFIFIDHTIHWMKQRPEQGLEWIGCISPRHDITKYNEMFRGKATLTADKSSTTAYIQVNSLTFEDSAVYFCARGGFYGSTIWFDFWGQGTTLTVS
# VL: ETTVTQSPASLSMAIGEKVTIRCITTTDIDDDMNWFQQKPGEPPNLLISEGNILRPGVPSRFSSSGYGTDFLFTIENMLSEDVADYYCLQSDNLPFTFGSGTKLEIK
# Columns and labels:
# [1] = test system: CNV lesions after laser rupture of Bruch's membrane; experiment: CNV animal model of AMD, murine vs humanized mAbs (Example 17); format: in vivo, mouse; conditions: 0.5 ug intravitreal Day 0 and Day 6, 14 days post laser
# Description: The humanized antibody variants and the murine antibody were compared for their ability to inhibit neo-vascularization in the CNV animal model of AMD as shown in FIG. 13. […] Mice were sacrificed 14 days post laser surgery. Control mice were treated with aqueous buffer (PBS) or an isotype-matched non-specific antibody. Three of the humanized variants inhibited angiogenesis essentially equivalently to the murine antibody as assessed by measurement of CNV area. CNV lesion volumes are represented as means±SEM. […]
# The morphometric and volumetric CNV lesions were measured as follows. […]
# Captured digital images were evaluated morphometrically using ImageJ software (Research Services Branch, National Institutes of Health, Bethesda, Md.). Images were split into separate RGB channels for analysis of the red and green channels as follows: 1) a calibration for the specific objective and microscope was applied to set the pixel-to-length ratio; 2) a threshold was applied using the Otsu algorithm; 3) images will be made binary; 4) a region-of-interest (ROI) was outlined to include the entire lesion area; 5) a particle analysis was performed to quantify the pixel area above the threshold level within the ROI. […]
# [2] = test system: endothelial cell (EC) infiltration into Matrigel plugs; experiment: In vivo Matrigel plug assay, S1P-supplemented plugs, EC infiltration; set-up: species or system mouse; conditions: systemic administration every 48 hrs from 1 day prior to implantation
# Description: Based on in vivo studies showing that S1P increased endothelial capillary growth into subcutaneously implanted Matrigel plugs, we speculated that SPHINGOMAB could reduce de novo BV formation in vivo. To investigate this, we employed the in vivo Matrigel Plug assay for neovascularization. In one set of experiments, Matrigel was supplemented with either […], 0.5 μg/mL bFGF or 1 μg/mL VEGF and then injected […]. into mice (n=4). After 10 days, the mice were heparinized and injected with the fluorescent lectin, Isolectin B4-FITC, which binds to adhesion molecules expressed by vascular EC that form the growing BVs. The plugs were then excised, frozen in OCT, sectioned and viewed for FITC-stained BVs.
# Sections of the plugs were then stained with hemotoxyln & eosin for evaluation of EC infiltration (FIG. 6B). The infiltration of ECs is a critical step in neo-vascularization. […] Cell infiltration is presumed to be ECs although we recognize that other cell types such as immune cells may also be stained.
# [3] = test system: CNV lesions after laser-induced rupture of Bruch's membrane; experiment: Murine model of laser-induced CNV and scar formation (Example 4); format: in vivo, mouse; conditions: 0.5 ug
# Description: Female C57BL6/J mice were subjected to laser-induced rupture of Bruch's membrane and administered either 0.5 μg of Sphingomab or an isotype-matched non-specific (NS) antibody diluted in 2 μl of physiological saline. Mice were sacrificed 14 and 28 days after laser rupture.
# To induce CNV lesions, the pupils were dilated with ophthalmic tropicamide (0.5%) and phenylephrine (2.5%). A coverslip was placed on the eye. An Oculight GL 532 nm (Iridex Corporation, Mountain View, Calif.) coupled to a slit lamp set to deliver a 100 msec pulse at 150 mW with a 50 μm spot size was used to rupture Bruch's membrane in three quadrants of the right eye located approximately 50 μm from the optic disc at relative 9, 12 and 3 o'clock positions. The left eye served as an uninjured control in all cases. Any lesion not associated with a vapor bubble or lesions that became confluent were excluded from analysis. […]
# To assess collagen deposition, the sclera-choroid-RPE complex was stained with Masson's Trichrome. […] Approximately 30 sections per lesion were evaluated. Quantitation of the volume of collagen deposition was calculated in the same manner as described for CNV lesion volume.
# Captured digital images were evaluated morphometrically using ImageJ software (Research Services Branch, National Institutes of Health, Bethesda, Md.).
molecule,measurement,setting,value
B1,Percent inhibition of lesion size,[1],approximately 80%
same,EC infiltration into S1P-containing Matrigel plugs,[2],reduced amount of EC infiltration
same,choroidal neovascularization,[3]; 14 and 28 days after laser-induced rupture of Bruch's membrane,dramatically attenuates
same,fibrosis associated with CNV lesion formation,[3]; 28 days after laser-induced rupture,significantly reduces
